Assay in all cases: cell-based or functional assay
For experiment [1], the target named is recombinant human Rab6A (Jena Biosciences) (human) (UniProt P20340).
Experiment [2] has as its target recombinant human Rab27A (Abnova Corporation) (human) (UniProt P51159).
Experiment [3] deals with recombinant human Rab6A (Jena Biosciences) (human) (UniProt P20340). The source holds these as a separate data set.

Chain of UniProt P20340 (P20340 whole entry): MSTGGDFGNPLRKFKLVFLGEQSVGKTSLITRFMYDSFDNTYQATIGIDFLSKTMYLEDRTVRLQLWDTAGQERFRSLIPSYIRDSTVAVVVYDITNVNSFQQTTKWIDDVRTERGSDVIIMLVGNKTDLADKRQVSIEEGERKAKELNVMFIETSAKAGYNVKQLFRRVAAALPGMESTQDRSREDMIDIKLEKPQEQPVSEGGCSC
Chain of UniProt P51159 (P51159 whole entry): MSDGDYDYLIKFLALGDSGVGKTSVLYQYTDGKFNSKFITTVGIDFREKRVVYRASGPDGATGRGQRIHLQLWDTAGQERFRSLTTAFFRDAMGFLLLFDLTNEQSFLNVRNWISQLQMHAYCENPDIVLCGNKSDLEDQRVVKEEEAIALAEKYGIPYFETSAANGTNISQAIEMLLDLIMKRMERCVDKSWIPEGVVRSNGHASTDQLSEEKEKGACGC

Turning to “recombinant fish His-REP1 (Jena Biosciences)”, the band intensity of biotinylated Rab6a in positive controls, fold against the Rab27a data of FIG. 2 in experiment [1] amounted to 100 fold.

B1: human Rab escort protein 1 (REP1) (protein, UniProt P24386 1-653, looked up)
chain: MADTLPSEFDVIVIGTGLPESIIAAACSRSGRRVLHVDSRSYYGGNWASFSFSGLLSWLKEYQENSDIVSDSPVWQDQILENEEAIALSRKDKTIQHVEVFCYASQDLHEDVEEAGALQKNHALVTSANSTEAADSAFLPTEDESLSTMSCEMLTEQTPSSDPENALEVNGAEVTGEKENHCDDKTCVPSTSAEDMSENVPIAEDTTEQPKKNRITYSQIIKEGRRFNIDLVSKLLYSRGLLIDLLIKSNVSRYAEFKNITRILAFREGRVEQVPCSRADVFNSKQLTMVEKRMLMKFLTFCMEYEKYPDEYKGYEEITFYEYLKTQKLTPNLQYIVMHSIAMTSETASSTIDGLKATKNFLHCLGRYGNTPFLFPLYGQGELPQCFCRMCAVFGGIYCLRHSVQCLVVDKESRKCKAIIDQFGQRIISEHFLVEDSYFPENMCSRVQYRQISRAVLITDRSVLKTDSDQQISILTVPAEEPGTFAVRVIELCSSTMTCMKGTYLVHLTCTSSKTAREDLESVVQKLFVPYTEMEIENEQVEKPRILWALYFNMRDSSDISRSCYNDLPSNVYVCSGPDCGLGNDNAVKQAETLFQEICPNEDFCPPPPNPEDIILDGDSLQPEASESSAIPEANSETFKESTNLGNLEESSE
With B1, in experiment [2], the band density values of biotinylated Rab substrate, condition 4 was 0.8; the band density values of biotinylated Rab substrate, condition 7 is 0.3; the baseline biotin incorporation in untransduced samples (band density) came to 0.577 a.u; the best-fit top of the curve, biotin incorporation against MOI of rAAV2/2-REP1 (4-PL) stood at 53.8 a.u. Further, in experiment [3], the band density of biotinylated substrate, fold against Rab27a in matching conditions is less than 2.5 fold; the band density values of biotinylated Rab substrate, condition 12 was found to be 1.8; the band density values of biotinylated Rab substrate, condition 15 amounted to 0.75; the baseline biotin incorporation in untransduced samples (band density) was determined as 5.01 a.u. Moreover, in experiment [3], the best-fit top of the curve, biotin incorporation against MOI of rAAV2/2-REP1 (4-PL) turned out to be 92.8 a.u; the biotinylated substrate, fold against Rab27a (untransduced 293 lysate) is 2.5 fold; the strength of the WB signal of biotinylated Rab6a, fold against the Rab27a data of FIG. 2 (AAV-REP1 transduced cells) worked out at 10 fold.

(Values after patent US20200341015A1.)
